This note sets out measurements from patent US20220411487A1.

The target in the test is catalytically inactive full length human TMPRSS6 on HEK293 cells (HEK293/hTMPRSS6 (S762A)) (human) (UniProt Q8IU80). As to the kind of experiment: flow cytometry, HEK293 cells expressing target.
Chain of catalytically inactive full length human TMPRSS6 on HEK293 cells (HEK293/hTMPRSS6 (S762A)) (human) (Q8IU80 10-811 S762A): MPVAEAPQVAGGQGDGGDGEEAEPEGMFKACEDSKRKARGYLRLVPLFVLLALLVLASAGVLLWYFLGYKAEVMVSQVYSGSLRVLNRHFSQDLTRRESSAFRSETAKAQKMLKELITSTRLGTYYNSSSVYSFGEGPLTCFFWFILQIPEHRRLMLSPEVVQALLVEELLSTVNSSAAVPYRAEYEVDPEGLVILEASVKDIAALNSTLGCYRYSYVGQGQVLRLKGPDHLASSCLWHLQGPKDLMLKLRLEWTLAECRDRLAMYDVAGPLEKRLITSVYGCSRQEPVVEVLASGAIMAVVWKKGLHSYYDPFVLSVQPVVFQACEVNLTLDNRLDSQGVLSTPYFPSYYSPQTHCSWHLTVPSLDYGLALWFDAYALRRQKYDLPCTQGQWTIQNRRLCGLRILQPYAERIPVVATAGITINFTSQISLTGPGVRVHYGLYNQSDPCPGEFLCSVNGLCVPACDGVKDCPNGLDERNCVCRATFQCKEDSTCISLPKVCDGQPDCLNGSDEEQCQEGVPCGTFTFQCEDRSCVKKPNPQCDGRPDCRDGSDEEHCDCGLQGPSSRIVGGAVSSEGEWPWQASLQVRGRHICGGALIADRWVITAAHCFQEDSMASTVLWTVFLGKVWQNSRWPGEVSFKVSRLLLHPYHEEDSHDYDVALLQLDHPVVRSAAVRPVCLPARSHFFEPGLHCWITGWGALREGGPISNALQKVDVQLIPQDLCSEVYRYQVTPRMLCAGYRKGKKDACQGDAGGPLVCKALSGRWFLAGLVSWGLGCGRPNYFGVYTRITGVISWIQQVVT

B1: REGN8023 (antibody, human IgG4 S228P, kappa, V domains shown)
VH: EVQLVESGGGLVKPGGSLRISCAASGFIFVDYAMHWVRQAPGKGLEWVSGISWNSGSIGYADSVKGRFTISRDNAKKSLYLQMSGLRPEDTALYYCVKSGFYYVRSYFDNWGQGTLVTVSS
VL: DIVMTQSPLSLPVTPGEPASISCRSSQSLLDSDDGNTYLDWYLRKPGQSPQLLIYTLSYRASGVPDRFSGSGSGTDFTLKISRVEADDVGVYYCMQRIEFPLTFGGGTKVEIKR
The molecule B1 yielded an EC50 of 2 nM and a Max. Fold Binding (fold over unstained control) of 300.
